This is an account of results in US5304480.

Data set [1] deals with XhoI restriction endonuclease (Xanthomonas campestris pv. holcicola ATCC 13461). The data set can be described thus: cleavage_in_vitro. The settings on record: 50 mM Tris HCl pH 8.1, 10 mM MgCl2, 50 mM NaCl, 37 C; no activity detected from E. coli DH10B extracts.
Data set [2] relates to XhoII restriction endonuclease (Xanthomonas campestris pv. holcicola ATCC 13461). The data set can be described thus: cleavage_in_vitro. The settings on record: 20 mM Tris HCl pH 7.4, 10 mM MgCl2, 37 C; no activity detected from E. coli DH10B extracts.

Substance Adenovirus-2 DNA (XhoI sites) registered an activity (units per gram of cells) in data set [1] of 100000.

With phage lambda DNA (XhoII/BstYI sites), the activity (units per gram of cells) in data set [2] came out at 10000.
